In patent publication US20260347455 (published 2026):

T1: human BMP6 (Peprotech 120-06) (human)
T1 chain: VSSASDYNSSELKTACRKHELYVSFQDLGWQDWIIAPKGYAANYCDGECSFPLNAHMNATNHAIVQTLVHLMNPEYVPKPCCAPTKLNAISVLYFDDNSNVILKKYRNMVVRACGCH

B1: CL-58838 Fab (antibody, V domains shown)
VH: QVQLVESGGGLVKPGGSLRLSCAASGFTFSDYYMSWIRQAPGKGLEWVSYISISGSTIYYADSVKGRFTISRDNAMDSLYLQMNSLRAEDTAVYYCARRSSGWYDYWGQGTLVTVSS
VL: EIVLTQSPGTLSLSPGERATLSCWASQRVVYRYLAWYQRKPGQAPRLLIYGAFNRATGIPDRFSGSGSGTDFSLTISRLEPEDFAVYYCHQYGSSPPTFGQGTKVEIK
B2: CL-58838 IgG4 (antibody, V domains shown)
VH: B1 VH
VL: EIVLTQSPGTLSLSPGERATLSCWASQRVVYRYLAWYQRKPGQAPRLLIYGAFNRATGIPDRFSGSGSGTDFSLTISRLEPEDFAVYYCHQYGSSPPTFGQGTKVEIKR

Assays:
[1] = molecular target: T1, human BMP6 (Peprotech 120-06); test: SPR, 37C, pH 7.6
[2] = molecular target: T1, human BMP6 (Peprotech 120-06); test: SPR, 37C, pH 7.6, bivalent (relative KD)

Row | Binder | Kd [1] [nM] | Kd [2] [nM]
1 | B1 | 0.14 | –
2 | B2 | – | 0.07
